Experimental findings from patent US6534640B1, “Methods and compositions to alter the cell surface expression of phosphatidylserine and other clot-promoting plasma membrane phospholipids” (Blood Center Research Foundation, priority 1996, dated 2003) are described below.

For data set [1], the system named is human cell lines (Raji, HL60, Dami, HEL, W9, Jurkat, Molt-4, K562). As to the kind of experiment: Measurement of cell surface PS (FVa light chain binding, flow cytometry) in human cell lines after calcium ionophore. It is filed as cell-based. The conditions noted are these: 2 μM A23187, 1.2 mM free Ca2+. The method, then:
Measurement of cell surface PS. Calcium ionophore-induced exposure of PS on the surface of all cell lines analyzed was detected by the specific binding of coagulation factor Va (light chain) as previously described (P. J. Sims, et al., J. Biol. Chem. 263:18205-18212, 1988; H. Kojima, et al., J. Clin. Invest. 94:2237-2243, 1994). Briefly, cells were washed twice to remove serum proteins and suspended (2×10^6 cells/ml) at 37° C. in RPMI 1640 supplemented with 0.1% BSA, 20 mM HEPES, and adjusted to 1.2 mM free [Ca^2+]. At time=0 A231.87 (0 or 2 μM final concentration) was added from 1 mM stock solution in DMSO, and at times indicated in figure legends, the reaction was stopped by addition of 6 mM EGTA. PS exposed on the cell surface at each time point was detected by incubating (10 minutes, room temperature) 50 μl of the cell suspension with […] FVa, followed by 10 μg/ml anti-FVa, to detect the cell-bound FVa light chain. After staining with 10 μg/ml Tri-Color conjugated goat anti-mouse IgG (CALTAG Laboratories, Burlingame, Calif.), single-cell fluorescence was quantitated by flow cytometry (FL3 channel, FACScan, Becton Dickinson Immunocytometry Systems). Use of Tri-Color conjugate to detect cell-bound FVa enabled simultaneous measurement of cell-associated GFP fluorescence in cell lines transformed with the pEGFP-C2 expression plasmid (fluorescence of GFP detected in FL1 channel). In experiments in which cell lysis was monitored by uptake of propidium iodide, cells were stained for bound FVa with FITC-conjugate of goat anti-mouse IgG (FL1 channel) substituting for Tri-Color conjugate, and propidium iodide was detected in FL3 channel. Propidium iodide (0.5 μg/ml) was added immediately before dilution for flow cytometry.
FIG. 8 depicts western blot analysis of PL scramblase in various human cell lines. Constitutive expression of PL scramblase was analyzed in the human cell lines indicated. […] At times shown (abscissa), EGTA was added and cells analyzed for surface exposed PS as detected by cell-bound FVa light chain (see Materials and Methods). […]
Background: A flow cytometer gives signals particle by particle.

In data set [2] the target is T1, mouse PL scramblase (Mus musculus, UniProt Q9DCW2).
T1 construct: made in house; host or cells: E. coli TB1 (pMAL-C2)
T1 sequence (Q9DCW2 1-307): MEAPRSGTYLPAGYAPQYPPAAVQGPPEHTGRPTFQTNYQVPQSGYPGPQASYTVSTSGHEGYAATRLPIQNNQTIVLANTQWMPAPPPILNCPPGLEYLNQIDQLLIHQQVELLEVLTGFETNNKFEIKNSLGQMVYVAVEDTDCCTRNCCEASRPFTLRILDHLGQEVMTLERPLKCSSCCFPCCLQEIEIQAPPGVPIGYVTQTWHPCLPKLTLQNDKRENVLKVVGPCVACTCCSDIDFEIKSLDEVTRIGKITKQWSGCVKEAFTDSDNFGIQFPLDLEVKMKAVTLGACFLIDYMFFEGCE
The experiment in a line: PL scramblase activity of recombinant mouse protein in reconstituted PC/PS proteoliposomes. Type of data set: biochemical. The settings on record: 420 pmoles protein, 1 μmol PL. How it is done:
Expression and Purification of Mouse PL Scramblase-MBP Fusion Protein: Mouse PL scramblase was expressed as fusion protein with MBP in E. coli TB1 and purified on amylose resin as previously described for human PL scramblase (Q. Zhou, et al., J. Biol. Chem. 272:18240-18244, 1997). The purified fusion protein was centrifuged at 106,000×g for 1 hour at 4° C. to remove aggregated protein.
(§1) Reconstitution and Functional Activity of PL Scramblase: Reconstitution, removal of MBP, and functional assay of PL scramblase were performed as previously described (F. Bassé, et al., J. Biol. Chem. 271:17205-17210, 1996; Q. Zhou, et al., supra, 1997; J. G. Stout, et al., J. Clin. Invest. 99:2232-2238, 1997). Routinely, 420 pmoles of protein were reconstituted with 1 μmol of PL. To remove MBP, proteoliposomes were incubated 3 hours at room temperature with 1/40 (w/w) factor Xa. The digest was terminated by addition of 100 μM Glu-Gly-Arg chloromethyl ketone. Proteoliposomes labeled with NBD-PC were incubated for 2 hours at 37° C. in Tris buffer in the presence or absence of CaCl2 as indicated in figure legends and diluted 25-fold in Tris buffer containing 4 mM EGTA. Initial fluorescence was recorded (SLM Aminco 8000 spectrofluorimeter; excitation at 470 nm, emission at 532 nm), 20 mM dithionite was added, and the fluorescence was continuously monitored for a total of 120 seconds. Scramblase activity was calculated according to the difference in non-quenchable fluorescence observed in presence vs absence of CaCl2. Ionized [Ca^2+] was calculated using FreeCal version 4.0 software (generously provided by Dr. Lawrence F. Brass, University of Pennsylvania, Philadelphia, Pa.).
Functional Activity of Recombinant Mouse PL Scramblase. In order to confirm that the cDNA identified as mouse PL scramblase encodes a protein of similar function to that identified in human, the human and mouse proteins were each expressed in E. coli, purified, and reconstituted in proteoliposomes for measurement of PL mobilizing activity. Mouse or human PL scramblase-MBP fusion protein (420 pmoles) was reconstituted into PC/PS liposomes (1 μmol total PL), respectively, MBP was removed by digestion of the proteoliposomes with factor Xa, and PL scramblase activity was determined as described under “Experimental Procedures” and plotted as a function of external free [Ca^2+]. The results of this experiment indicate that recombinant mouse PL scramblase mediated a Ca^2+-dependent transbilayer movement of membrane PL with a specific activity and affinity for Ca^2+ indistinguishable from that observed for the recombinant human protein.

The test system of data set [3] is human PL scramblase. The experiment in a line: PL scramblase activity: Ca2+-dependent transbilayer movement of NBD-PC in reconstituted PC/PS proteoliposomes. Type of data set: biochemical. The conditions noted are these: for apparent avidity for Ca2+ of mutant human PL scramblase: activity as function of external free [Ca2+]; for PL scramblase function of Ala-substituted mutants of the EF-hand loop vs wild type: mutant human PL scramblase, 2 mM CaCl2. The method, then:
Reconstitution of PL scramblase or scramblase fusion protein into proteoliposomes. Reconstitution and functional activity were performed essentially as previously described (F. Bassé, et al., J. Biol. Chem. 271:17205-17210, 1996; J. G. Stout, et al., J. Clin. Invest. 99:2232-2238, 1997). Briefly, a mixture of PC and PS (9:1 molar ratio) was dried under a stream of nitrogen and resuspended in 100 mM Tris, 100 mM KCl, 0.1 mM EGTA, pH 7.4 (Tris buffer). Protein samples to be reconstituted were added to the liposomes at a final lipid concentration of 4 mg/ml in the presence of 60 mM OG, and dialyzed overnight at 4° C. against 200 vol of Tris buffer containing 1 g/L Bio-Beads SM-2. To liberate PL scramblase from MBP, the proteoliposomes were incubated 3 h at room temperature in the presence of 1/40 (w/w) factor Xa. The digestion was terminated by addition of 100 μM Glu-Gly-Arg chloromethyl ketone. Completeness of the digest was monitored by SDS-PAGE. Following dialysis, the proteoliposomes were labeled in the outer leaflet by addition of 0.25 mol % fluorescent NBD-PC (in dimethyl sulfoxide, final solvent concentration 0.25%).
PL Scramblase activity. Scramblase activity was measured as previously described (F. Bassé, et al., supra, 1996; J. G. Stout, et al., supra, 1997 and in U.S. Ser. No. 08/790,186). Routinely, proteoliposomes labeled with NBD-PC were incubated for 2 hours at 37° C. in Tris buffer in the presence or absence of 2 mM CaCl2. Proteoliposomes were diluted 25-fold in Tris buffer containing 4 mM EGTA and transferred to a stirred fluorescence cuvet at 23° C. Initial fluorescence was recorded (SLM Aminco 8000 spectrof luorimeter; excitation at 470 nm, emission at 532 nm), 20 mM dithionite was added, and the fluorescence continuously monitored for a total of 120 seconds. The difference in non-quenchable fluorescence observed in presence vs. absence of CaCl2 Was attributed to Ca^2+-induced change in NBD-PC located in the outer leaflet (F. Bassé, et al., supra, 1996; J. G. Stout, et al., supra, 1997; J. C. McIntyre and R.G. Sleight, Biochemistry 30:11819-11827, 1991). Ionized [Ca^2+] was calculated using FreeCal version 4.0 software (generously provided by Dr. Lawrence F. Brass, University of Pennsylvania, Philadelphia, Pa.).
as §1
Mutagenesis of PL Scramblase: Human PL scramblase amino acid residues in EF-hand Ca^2+-binding motif at positions of Asp^273, Asp^275, Phe^277, Ile^279, Phe^281 and Asp^284 were mutated to Ala with oligonucleotide-directed mutagenesis by two rounds of PCR. […]

Positions count from the first letter of the chain named.

For `CNc1ccc2oc(C[C@H]3O[C@@]4(CC[C@H]3C)O[C@H]([C@H](C)C(=O)c3ccc[nH]3)[C@H](C)C[C@H]4C)nc2c1C(=O)O` [A23187], the “PS mobilized to the cell surface in response to calcium ionophore” value in data set [1] (HEL, W9 and Jurkat cells) is “notably robust responses”; in data set [1] (Molt-4 and K562 cells), “intermediate responses”; in data set [1] (Raji, HL60 and Dami cells), “notably unresponsive”.

B1: recombinant mouse PL scramblase: Recombinant murine PL scramblase (SEQ ID NO:4), 307 residues, expressed in E. coli (protein, listed as Mus musculus)
chain: T1 sequence (Q9DCW2 1-307) with Q168N, K178R, K221L, D242S, K256L, K259L, K266L
Turning to B1, the “affinity for Ca2+ compared with recombinant human protein” value is listed as “indistinguishable” in data set [2] and “virtually the same” in data set [2] (listed as murine PL scramblase). Moreover, the “specific activity (Ca2+-dependent transbilayer movement of membrane PL) compared with recombinant human protein” value is recorded as “indistinguishable” in data set [2] and “the same activity” in data set [2] (listed as murine PL scramblase).

B2: Asp275: Mutant human PL scramblase with Ala substitution at Asp275 (EF-hand loop position 3) (protein, UniProt O15162 1-318, looked up, variant D275A)
Phospholipid scramblase 1: MDKQNSQMNASHPETNLPVGYPPQYPPTAFQGPPGYSGYPGPQVSYPPPPAGHSGPGPAGFPVPNQPVYNQPVYNQPVGAAGVPWMPAPQPPLNCPPGLEYLSQIDQILIHQQIELLEVLTGFETNNKYEIKNSFGQRVYFAAEDTDCCTRNCCGPSRPFTLRIIDNMGQEVITLERPLRCSSCCCPCCLQEIEIQAPPGVPIGYVIQTWHPCLPKFTIQNEKREDVLKISGPCVVCSCCGDVDFEIKSLDEQCVVGKISKHWTGILREAFTDAANFGIQFPLDLDVKMKAVMIGACFLIDFMFFESTGSQEQKSGVW
In the case of B2, in data set [3], the “apparent avidity for Ca2+ of mutant human PL scramblase” value (“apparent avidity for Ca2+” for short) is listed as “significant reduction” and the “PL scramblase function of Ala-substituted mutants of the EF-hand loop vs wild type” value (from here on “PL scramblase function … vs wild type”) is “complete inactivation”.

B3: Asp284: Mutant human PL scramblase with Ala substitution at Asp284 (EF-hand loop position 12) (protein, UniProt O15162 1-318, looked up, variant D284A)
Phospholipid scramblase 1: B2 Phospholipid scramblase 1 with A275D, D284A
On to B3, for which, in data set [3], the “apparent avidity for Ca2+” value is “significant reduction” and the “PL scramblase function … vs wild type” value is listed as “partial loss of function”.

B4: Asp273: Mutant human PL scramblase with Ala substitution at Asp273 (EF-hand loop position 1) (protein, listed as Homo sapiens)
chain: B2 Phospholipid scramblase 1 with D273A, A275D
Regarding B4, in data set [3], the “apparent avidity for Ca2+” value is “significant reduction” and the “PL scramblase function … vs wild type” value is “partial loss of function”.
